# B1: GpH7-B3 variant H268_02A/GpL16-k0 (antibody, human IgG1, kappa)
# heavy: not shown
# light: DIVMTQSPLSLPVTPGEPASISCQASESLVHSNRNTYLHWYLQKPGQSPQLLIYKVSNRFSGVPDRFSGSGSGTDFTLKISRVEAEDVGVYYCSQNTHVPPTFGQGTKVEIERTVAAPSVFIFPPSDEQLKSGTASVVCLLNNFYPREAKVQWKVDNALQSGNSQESVTEQDSKDSTYSLSSTLTLSKADYEKHKVYACEVTHQGLSSPVTKSFNRGEC
# notes: also called Ho Ab H268_02A
# B2: GpH7-B3 variant T335_15Y/GpL16-k0 (antibody, human IgG1, kappa)
# heavy: not shown
# light: B1 light
# notes: also called Ho Ab T335_15Y
# B3: GpH7-B3 variant I336_08L/GpL16-k0 (antibody, human IgG1, kappa)
# heavy: not shown
# light: B1 light
# notes: also called Ho Ab I336_08L
# B4: GpH7-B3 variant S337_20W/GpL16-k0 (antibody, human IgG1, kappa)
# heavy: not shown
# light: B1 light
# notes: also called Ho Ab S337_20W
# B5: GpH7-B3 variant S239_08L/GpL16-k0 (antibody, human IgG1, kappa)
# heavy: not shown
# light: B1 light
# notes: also called Ho Ab S239_08L
# B6: GpH7-B3 variant S337_07I/GpL16-k0 (antibody, human IgG1, kappa)
# heavy: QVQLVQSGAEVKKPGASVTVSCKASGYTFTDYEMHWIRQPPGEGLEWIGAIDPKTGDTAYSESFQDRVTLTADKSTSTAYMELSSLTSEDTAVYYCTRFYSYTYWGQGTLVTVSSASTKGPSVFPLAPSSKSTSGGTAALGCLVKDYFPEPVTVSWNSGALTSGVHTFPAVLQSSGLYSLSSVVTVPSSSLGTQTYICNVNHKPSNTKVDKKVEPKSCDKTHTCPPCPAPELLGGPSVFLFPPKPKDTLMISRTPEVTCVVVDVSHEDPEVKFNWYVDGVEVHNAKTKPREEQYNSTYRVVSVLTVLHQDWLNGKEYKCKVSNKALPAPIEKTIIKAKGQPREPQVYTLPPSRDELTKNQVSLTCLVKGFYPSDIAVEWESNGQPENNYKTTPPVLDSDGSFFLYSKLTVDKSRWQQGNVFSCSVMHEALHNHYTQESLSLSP
# light: B1 light
# notes: also called Ho Ab S337_07I
# B7: GpH7-B3 variant S267_09D/GpL16-k0 (antibody, human IgG1, kappa)
# heavy: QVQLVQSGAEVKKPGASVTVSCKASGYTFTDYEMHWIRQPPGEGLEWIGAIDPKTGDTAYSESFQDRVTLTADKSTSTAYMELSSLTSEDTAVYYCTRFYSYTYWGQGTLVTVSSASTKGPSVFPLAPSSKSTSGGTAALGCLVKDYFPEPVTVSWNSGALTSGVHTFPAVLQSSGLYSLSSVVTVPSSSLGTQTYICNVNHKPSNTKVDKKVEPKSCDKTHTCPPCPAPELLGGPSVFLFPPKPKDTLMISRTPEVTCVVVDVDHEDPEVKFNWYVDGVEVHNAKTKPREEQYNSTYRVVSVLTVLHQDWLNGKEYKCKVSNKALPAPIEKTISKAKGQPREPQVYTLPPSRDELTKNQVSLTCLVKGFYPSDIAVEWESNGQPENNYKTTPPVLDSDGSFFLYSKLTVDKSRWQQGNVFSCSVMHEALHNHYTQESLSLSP
# light: B1 light
# notes: also called Ho Ab S267_09D
# B8: GpH7-B3 variant Y296_16H/GpL16-k0 (antibody, human IgG1, kappa)
# heavy: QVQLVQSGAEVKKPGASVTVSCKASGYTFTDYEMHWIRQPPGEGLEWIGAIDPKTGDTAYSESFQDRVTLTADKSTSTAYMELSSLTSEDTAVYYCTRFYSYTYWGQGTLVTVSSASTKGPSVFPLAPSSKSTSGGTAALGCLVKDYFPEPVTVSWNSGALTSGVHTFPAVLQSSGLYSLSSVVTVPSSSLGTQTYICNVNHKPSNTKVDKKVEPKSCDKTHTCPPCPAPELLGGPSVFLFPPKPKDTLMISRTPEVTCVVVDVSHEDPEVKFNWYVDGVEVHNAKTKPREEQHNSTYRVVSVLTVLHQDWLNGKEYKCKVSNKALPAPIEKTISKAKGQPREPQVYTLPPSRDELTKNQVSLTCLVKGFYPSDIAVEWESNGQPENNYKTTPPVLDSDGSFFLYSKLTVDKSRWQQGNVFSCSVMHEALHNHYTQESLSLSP
# light: B1 light
# notes: also called Ho Ab Y296_16H
# B9: GpH7-B3 variant Y296_18N/GpL16-k0 (antibody, human IgG1, kappa)
# heavy: not shown
# light: B1 light
# notes: also called Ho Ab Y296_18N
# B10: GpH7-B3 variant G236_07I/GpL16-k0 (antibody, human IgG1, kappa)
# heavy: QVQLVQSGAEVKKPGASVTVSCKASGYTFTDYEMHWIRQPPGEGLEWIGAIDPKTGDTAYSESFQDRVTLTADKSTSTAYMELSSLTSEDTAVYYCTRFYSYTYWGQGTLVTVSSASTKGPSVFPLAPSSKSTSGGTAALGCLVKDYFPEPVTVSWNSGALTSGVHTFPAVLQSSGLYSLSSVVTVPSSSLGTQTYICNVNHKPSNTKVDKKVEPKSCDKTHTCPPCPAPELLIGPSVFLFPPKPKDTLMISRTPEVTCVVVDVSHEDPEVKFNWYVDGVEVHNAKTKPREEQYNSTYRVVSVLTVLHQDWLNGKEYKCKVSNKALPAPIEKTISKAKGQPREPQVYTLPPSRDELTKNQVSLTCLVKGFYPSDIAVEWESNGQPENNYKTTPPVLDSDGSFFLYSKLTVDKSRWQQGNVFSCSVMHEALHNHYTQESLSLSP
# light: B1 light
# notes: also called Ho Ab G236_07I
# B11: GpH7-B3 variant T335_10E/GpL16-k0 (antibody, human IgG1, kappa)
# heavy: not shown
# light: B1 light
# notes: also called Ho Ab T335_10E
# B12: GpH7-B3 variant Y296_09D/GpL16-k0 (antibody, human IgG1, kappa)
# heavy: not shown
# light: B1 light
# notes: also called Ho Ab Y296_09D
# B13: GpH7-B3 variant G236_03V/GpL16-k0 (antibody, human IgG1, kappa)
# heavy: not shown
# light: B1 light
# notes: also called Ho Ab G236_03V
# B14: GpH7-B3 variant H268_19Q/GpL16-k0 (antibody, human IgG1, kappa)
# heavy: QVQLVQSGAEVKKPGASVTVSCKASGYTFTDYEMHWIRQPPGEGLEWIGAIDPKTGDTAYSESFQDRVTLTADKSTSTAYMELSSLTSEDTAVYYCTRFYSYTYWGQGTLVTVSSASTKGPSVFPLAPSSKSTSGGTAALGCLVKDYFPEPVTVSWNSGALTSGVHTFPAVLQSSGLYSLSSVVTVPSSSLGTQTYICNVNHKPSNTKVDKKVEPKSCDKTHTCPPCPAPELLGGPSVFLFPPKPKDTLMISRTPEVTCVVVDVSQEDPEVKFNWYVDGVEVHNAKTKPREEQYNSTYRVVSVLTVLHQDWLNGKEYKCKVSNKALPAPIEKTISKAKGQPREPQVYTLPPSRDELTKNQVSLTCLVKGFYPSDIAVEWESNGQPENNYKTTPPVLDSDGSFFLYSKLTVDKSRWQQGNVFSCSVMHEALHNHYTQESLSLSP
# light: B1 light
# notes: also called Ho Ab H268_19Q
# B15: GpH7-B3 variant S239_09D/GpL16-k0 (antibody, human IgG1, kappa)
# heavy: not shown
# light: B1 light
# notes: also called Ho Ab S239_09D
# B16: GpH7-B3 variant K326_19Q/GpL16-k0 (antibody, human IgG1, kappa)
# heavy: not shown
# light: B1 light
# notes: also called Ho Ab K326_19Q
# B17: GpH7-B3 variant L235_20W/GpL16-k0 (antibody, human IgG1, kappa)
# heavy: not shown
# light: B1 light
# notes: also called Ho Ab L235_20W
# B18: GpH7-B3 variant S267_02A/GpL16-k0 (antibody, human IgG1, kappa)
# heavy: not shown
# light: B1 light
# notes: also called Ho Ab S267_02A
# B19: GpH7-B3 variant S239_10E/GpL16-k0 (antibody, human IgG1, kappa)
# heavy: not shown
# light: B1 light
# notes: also called Ho Ab S239_10E
# B20: GpH7-B3 variant L328_20W/GpL16-k0 (antibody, human IgG1, kappa)
# heavy: not shown
# light: B1 light
# notes: also called Ho Ab L328_20W
# B21: GpH7-B3 variant K334_16H/GpL16-k0 (antibody, human IgG1, kappa)
# heavy: not shown
# light: B1 light
# notes: also called Ho Ab K334_16H
# B22: GpH7-B3 variant S337_08L/GpL16-k0 (antibody, human IgG1, kappa)
# heavy: not shown
# light: B1 light
# notes: also called Ho Ab S337_08L
# B23: GpH7-B3 variant L328_14T/GpL16-k0 (antibody, human IgG1, kappa)
# heavy: not shown
# light: B1 light
# notes: also called Ho Ab L328_14T
# B24: GpH7-B3 variant T335_13S/GpL16-k0 (antibody, human IgG1, kappa)
# heavy: not shown
# light: B1 light
# notes: also called Ho Ab T335_13S
# B25: GpH7-B3 variant S267_10E/GpL16-k0 (antibody, human IgG1, kappa)
# heavy: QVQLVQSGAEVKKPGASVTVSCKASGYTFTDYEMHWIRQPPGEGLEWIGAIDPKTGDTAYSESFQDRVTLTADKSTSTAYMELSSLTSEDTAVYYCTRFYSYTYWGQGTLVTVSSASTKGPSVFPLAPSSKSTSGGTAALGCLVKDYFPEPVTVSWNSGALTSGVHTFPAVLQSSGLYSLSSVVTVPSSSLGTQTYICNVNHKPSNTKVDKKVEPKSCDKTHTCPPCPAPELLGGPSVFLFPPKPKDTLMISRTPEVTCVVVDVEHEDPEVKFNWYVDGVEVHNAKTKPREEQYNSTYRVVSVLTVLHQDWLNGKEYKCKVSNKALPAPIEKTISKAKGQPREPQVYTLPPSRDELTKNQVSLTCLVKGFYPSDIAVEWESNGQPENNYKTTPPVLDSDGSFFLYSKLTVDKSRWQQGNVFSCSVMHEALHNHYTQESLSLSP
# light: B1 light
# notes: also called Ho Ab S267_10E
# B26: GpH7-B3 variant A330_16H/GpL16-k0 (antibody, human IgG1, kappa)
# heavy: not shown
# light: B1 light
# notes: also called Ho Ab A330_16H
# B27: GpH7-B3 variant V266_07I/GpL16-k0 (antibody, human IgG1, kappa)
# heavy: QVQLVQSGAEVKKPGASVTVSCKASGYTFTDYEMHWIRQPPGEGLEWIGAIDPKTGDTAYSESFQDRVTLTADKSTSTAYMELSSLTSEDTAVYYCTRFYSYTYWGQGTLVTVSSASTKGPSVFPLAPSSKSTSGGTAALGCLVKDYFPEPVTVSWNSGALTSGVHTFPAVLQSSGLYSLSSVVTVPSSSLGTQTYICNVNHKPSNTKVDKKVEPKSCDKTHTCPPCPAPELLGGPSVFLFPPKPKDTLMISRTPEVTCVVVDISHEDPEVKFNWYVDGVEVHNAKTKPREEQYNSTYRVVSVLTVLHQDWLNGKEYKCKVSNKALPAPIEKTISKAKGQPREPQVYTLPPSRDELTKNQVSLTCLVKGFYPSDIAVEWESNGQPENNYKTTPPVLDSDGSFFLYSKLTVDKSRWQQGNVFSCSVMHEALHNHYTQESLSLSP
# light: B1 light
# notes: also called Ho Ab V266_07I
# B28: GpH7-B3 variant L234_20W/GpL16-k0 (antibody, human IgG1, kappa)
# heavy: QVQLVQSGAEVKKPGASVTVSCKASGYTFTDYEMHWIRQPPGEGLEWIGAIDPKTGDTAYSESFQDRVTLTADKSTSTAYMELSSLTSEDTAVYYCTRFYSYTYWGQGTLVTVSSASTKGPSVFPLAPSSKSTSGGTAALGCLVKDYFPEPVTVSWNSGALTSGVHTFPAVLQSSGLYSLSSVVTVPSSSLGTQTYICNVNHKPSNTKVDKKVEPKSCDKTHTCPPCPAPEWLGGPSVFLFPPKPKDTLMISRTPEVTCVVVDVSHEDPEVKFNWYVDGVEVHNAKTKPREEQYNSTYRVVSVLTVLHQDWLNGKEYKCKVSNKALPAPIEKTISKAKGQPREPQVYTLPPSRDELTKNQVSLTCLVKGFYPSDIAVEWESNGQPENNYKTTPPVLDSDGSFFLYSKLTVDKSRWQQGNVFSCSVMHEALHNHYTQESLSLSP
# light: B1 light
# notes: also called Ho Ab L234_20W
# B29: GpH7-B3 variant T335_18N/GpL16-k0 (antibody, human IgG1, kappa)
# heavy: not shown
# light: B1 light
# notes: also called Ho Ab T335_18N
# B30: GpH7-B3 variant E333_09D/GpL16-k0 (antibody, human IgG1, kappa)
# heavy: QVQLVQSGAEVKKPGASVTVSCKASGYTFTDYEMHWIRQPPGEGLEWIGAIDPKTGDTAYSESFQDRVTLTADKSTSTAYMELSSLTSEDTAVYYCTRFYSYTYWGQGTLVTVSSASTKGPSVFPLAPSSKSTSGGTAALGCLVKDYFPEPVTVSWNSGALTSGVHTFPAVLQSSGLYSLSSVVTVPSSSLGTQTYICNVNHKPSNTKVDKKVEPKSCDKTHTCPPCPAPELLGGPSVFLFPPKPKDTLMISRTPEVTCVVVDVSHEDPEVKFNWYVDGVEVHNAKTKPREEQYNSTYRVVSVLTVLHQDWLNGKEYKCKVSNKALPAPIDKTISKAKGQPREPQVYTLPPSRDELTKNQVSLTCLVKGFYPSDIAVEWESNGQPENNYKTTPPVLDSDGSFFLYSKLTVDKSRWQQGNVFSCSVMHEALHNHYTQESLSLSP
# light: B1 light
# notes: also called Ho Ab E333_09D
# B31: GpH7-B3 variant T335_01G/GpL16-k0 (antibody, human IgG1, kappa)
# heavy: not shown
# light: B1 light
# notes: also called Ho Ab T335_01G
# B32: GpH7-B3 variant H268_18N/GpL16-k0 (antibody, human IgG1, kappa)
# heavy: not shown
# light: B1 light
# notes: also called Ho Ab H268_18N
# B33: GpH7-B3 variant L328_06M/GpL16-k0 (antibody, human IgG1, kappa)
# heavy: not shown
# light: B1 light
# notes: also called Ho Ab L328_06M
# B34: GpH7-B3 variant K334_08L/GpL16-k0 (antibody, human IgG1, kappa)
# heavy: not shown
# light: B1 light
# notes: also called Ho Ab K334_08L
# B35: GpH7-B3 variant V266_08L/GpL16-k0 (antibody, human IgG1, kappa)
# heavy: not shown
# light: B1 light
# notes: also called Ho Ab V266_08L
# B36: GpH7-B3 variant S337_10E/GpL16-k0 (antibody, human IgG1, kappa)
# heavy: not shown
# light: B1 light
# notes: also called Ho Ab S337_10E
# B37: GpH7-B3 variant T335_07I/GpL16-k0 (antibody, human IgG1, kappa)
# heavy: not shown
# light: B1 light
# notes: also called Ho Ab T335_07I
# B38: GpH7-B3 variant K334_04F/GpL16-k0 (antibody, human IgG1, kappa)
# heavy: not shown
# light: B1 light
# notes: also called Ho Ab K334_04F
# B39: GpH7-B3 variant K326_10E/GpL16-k0 (antibody, human IgG1, kappa)
# heavy: not shown
# light: B1 light
# notes: also called Ho Ab K326_10E
# B40: GpH7-B3 variant T335_19Q/GpL16-k0 (antibody, human IgG1, kappa)
# heavy: not shown
# light: B1 light
# notes: also called Ho Ab T335_19Q
# B41: GpH7-B3 variant K326_06M/GpL16-k0 (antibody, human IgG1, kappa)
# heavy: not shown
# light: B1 light
# notes: also called Ho Ab K326_06M
# B42: GpH7-B3 variant I336_06M/GpL16-k0 (antibody, human IgG1, kappa)
# heavy: not shown
# light: B1 light
# notes: also called Ho Ab I336_06M
# B43: GpH7-B3 variant S324_02A/GpL16-k0 (antibody, human IgG1, kappa)
# heavy: not shown
# light: B1 light
# notes: also called Ho Ab S324_02A
# B44: GpH7-B3 variant T335_20W/GpL16-k0 (antibody, human IgG1, kappa)
# heavy: not shown
# light: B1 light
# notes: also called Ho Ab T335_20W
# B45: GpH7-B3 variant T335_16H/GpL16-k0 (antibody, human IgG1, kappa)
# heavy: not shown
# light: B1 light
# notes: also called Ho Ab T335_16H
# B46: GpH7-B3 variant L235_04F/GpL16-k0 (antibody, human IgG1, kappa)
# heavy: not shown
# light: B1 light
# notes: also called Ho Ab L235_04F
# B47: GpH7-B3 variant L235_15Y/GpL16-k0 (antibody, human IgG1, kappa)
# heavy: not shown
# light: B1 light
# notes: also called Ho Ab L235_15Y
# B48: GpH7-B3 variant Y296_04F/GpL16-k0 (antibody, human IgG1, kappa)
# heavy: not shown
# light: B1 light
# notes: also called Ho Ab Y296_04F
# B49: GpH7-B3 variant S337_09D/GpL16-k0 (antibody, human IgG1, kappa)
# heavy: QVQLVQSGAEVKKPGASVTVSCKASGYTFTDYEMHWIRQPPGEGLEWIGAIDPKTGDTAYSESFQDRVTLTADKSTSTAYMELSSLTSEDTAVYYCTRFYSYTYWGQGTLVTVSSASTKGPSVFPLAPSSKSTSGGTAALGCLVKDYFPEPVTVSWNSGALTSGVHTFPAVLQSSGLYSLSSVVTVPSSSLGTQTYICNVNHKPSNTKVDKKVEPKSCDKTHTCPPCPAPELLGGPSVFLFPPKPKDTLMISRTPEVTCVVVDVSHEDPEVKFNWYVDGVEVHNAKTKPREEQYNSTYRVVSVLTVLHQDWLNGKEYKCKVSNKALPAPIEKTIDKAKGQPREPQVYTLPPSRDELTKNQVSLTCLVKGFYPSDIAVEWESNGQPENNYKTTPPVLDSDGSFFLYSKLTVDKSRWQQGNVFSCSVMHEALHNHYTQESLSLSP
# light: B1 light
# notes: also called Ho Ab S337_09D
# B50: GpH7-A5/GpH7-B3 variant A327_09D/GpL16-k0 (antibody, human IgG1, kappa)
# heavy 1: not shown
# heavy 2: not shown
# light: B1 light
# notes: also called He Ab A327_09D
# B51: GpH7-A5/GpH7-B3 variant E333_04F/GpL16-k0 (antibody, human IgG1, kappa)
# heavy 1: not shown
# heavy 2: not shown
# light: B1 light
# notes: also called He Ab E333_04F
# B52: GpH7-A5/GpH7-B3 variant A330_19Q/GpL16-k0 (antibody, human IgG1, kappa)
# heavy 1: not shown
# heavy 2: not shown
# light: B1 light
# notes: also called He Ab A330_19Q
# B53: GpH7-A5/GpH7-B3 variant G236_04F/GpL16-k0 (antibody, human IgG1, kappa)
# heavy 1: not shown
# heavy 2: not shown
# light: B1 light
# notes: also called He Ab G236_04F
# B54: GpH7-A5/GpH7-B3 variant E333_13S/GpL16-k0 (antibody, human IgG1, kappa)
# heavy 1: not shown
# heavy 2: not shown
# light: B1 light
# notes: also called He Ab E333_13S
# B55: GpH7-A5/GpH7-B3 variant E333_08L/GpL16-k0 (antibody, human IgG1, kappa)
# heavy 1: not shown
# heavy 2: not shown
# light: B1 light
# notes: also called He Ab E333_08L
# B56: GpH7-A5/GpH7-B3 variant E333_14T/GpL16-k0 (antibody, human IgG1, kappa)
# heavy 1: not shown
# heavy 2: not shown
# light: B1 light
# notes: also called He Ab E333_14T
# B57: GpH7-A5/GpH7-B3 variant G236_14T/GpL16-k0 (antibody, human IgG1, kappa)
# heavy 1: not shown
# heavy 2: not shown
# light: B1 light
# notes: also called He Ab G236_14T
# B58: GpH7-A5/GpH7-B3 variant I336_03V/GpL16-k0 (antibody, human IgG1, kappa)
# heavy 1: not shown
# heavy 2: not shown
# light: B1 light
# notes: also called He Ab I336_03V
# B59: GpH7-A5/GpH7-B3 variant G236_15Y/GpL16-k0 (antibody, human IgG1, kappa)
# heavy 1: not shown
# heavy 2: not shown
# light: B1 light
# notes: also called He Ab G236_15Y
# B60: GpH7-A5/GpH7-B3 variant I336_10E/GpL16-k0 (antibody, human IgG1, kappa)
# heavy 1: not shown
# heavy 2: not shown
# light: B1 light
# notes: also called He Ab I336_10E
# Target: T1, FcγRIIa H (human, UniProt P12318 34-217)
# Assay: SPR Biacore, captured antibody, FcγR analyte; vs GpH7-B3/GpL16-k0 = 100
# T1 sequence (P12318 34-217): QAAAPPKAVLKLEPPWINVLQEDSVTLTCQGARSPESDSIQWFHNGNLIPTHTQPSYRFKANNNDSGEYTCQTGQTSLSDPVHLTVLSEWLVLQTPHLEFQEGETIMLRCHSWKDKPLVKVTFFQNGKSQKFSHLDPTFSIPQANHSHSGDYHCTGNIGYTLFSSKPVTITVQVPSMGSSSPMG
row,Ho/Con_2aH,Binder
1,111 % of control,B1
2,102 % of control,B2
3,101 % of control,B3
4,96.6 % of control,B4
5,87 % of control,B5
6,94 % of control,B6
7,91.5 % of control,B7
8,85.7 % of control,B8
9,100 % of control,B9
10,101 % of control,B10
11,105 % of control,B11
12,99.9 % of control,B12
13,111 % of control,B13
14,102 % of control,B14
15,112 % of control,B15
16,100 % of control,B16
17,112 % of control,B17
18,120 % of control,B18
19,91.4 % of control,B19
20,112 % of control,B20
21,101 % of control,B21
22,93.1 % of control,B22
23,110 % of control,B23
24,101 % of control,B24
25,98.5 % of control,B25

row,Ho/Con_2aH,Binder
1,101 % of control,B26
2,104 % of control,B27
3,55.3 % of control,B28
4,98 % of control,B29
5,103 % of control,B30
6,101 % of control,B31
7,110 % of control,B32
8,100 % of control,B33
9,103 % of control,B34
10,91.5 % of control,B35
11,101 % of control,B36
12,105 % of control,B37
13,103 % of control,B38
14,101 % of control,B39
15,103 % of control,B40
16,101 % of control,B41
17,100 % of control,B42
18,102 % of control,B43
19,98.7 % of control,B44
20,100 % of control,B45
21,101 % of control,B46
22,107 % of control,B47
23,95 % of control,B48
24,107 % of control,B49

# Target: T1, FcγRIIa H
# Assay: SPR Biacore, captured antibody, FcγR analyte; vs GpH7-A5/GpH7-B3/GpL16-k0 = 100
row,He/Con_2aH,Binder
1,105 % of control,B50
2,102 % of control,B51
3,102 % of control,B52
4,118 % of control,B53
5,101 % of control,B54
6,102 % of control,B55
7,100 % of control,B56
8,103 % of control,B57
9,102 % of control,B58
10,136 % of control,B59
11,102 % of control,B60

# Reference: US20150344570A1 (published 2015)
